Assay type: physicochemical
Conditions: 10 mM PBS buffer (pH=7.4), 37° C., 100 rpm shaker; free drug by HPLC, average release per day
Experimental: The drug release and stability experiments were run using the test compounds. About 2.5±1.0 mg/mL (with regard to conjugate) solution of each test compound was prepared with 10 mM PBS buffer (pH=7.4) in Millipore Amicon® Ultra-0.5 ml 30 k Ultrafiltration centrifuge tube. The solution was kept swelling for 1 h at room temperature and then placed in a shaker at 100 rpm, 37° C. for continuous experiment. At the same time point of each day, samples were centrifuged at 10000 rpm for 1 h. The aliquot was transferred to HPLC vial for analysis. An 0.4 mL of 10 mM PBS buffer was added into the centrifuge tube and continue the experiment.
For the HPLC analysis at each time point, the peak areas of all relevant peaks from the chromatograms were retrieved and the concentration of free drug was calculated. Average release of free drug was calculated based on the sum of free drug and numbers of experiment days. The computing equation is as below.
The sample degradation rate was calculated based on the concentration and degree of substitution (NMR) for conjugated drug with regard to the initial starting point of the experiment (at t=0). The computing equation is as below.

Row | Substance | Release rate [%/day]
1 | Conjugate of CS and 2-((8S,9S,10R,11S,13S,14S,17R)-11,17-dihydroxy-10,13-dimethyl-3-oxo-2,3,6,7,8,9,10,11,12,13,14,15,16,17-tetradecahydro-1H-cyclopenta[a]phenanthren-17-yl)-2-oxoethyl 4-aminobutanoate [Example 39] | 0.71
2 | Conjugate of HA and 2-((8S,9R,10S,11S,13S,14S,16S,17R)-9-fluoro-11,17-dihydroxy-10,13,16-trimethyl-3-oxo-6,7,8,9,10,11,12,13,14,15,16,17-dodecahydro-3H-cyclopenta[a]phenanthren-17-yl)-2-oxoethyl 6-aminohexanoate [Example 84] | 3.73
3 | Conjugate of CS and 4-aminobutyl (2-((8S,9S,10R,13S,14S,17R)-17-hydroxy-10,13-dimethyl-3,11-dioxo-2,3,6,7,8,9,10,11,12,13,14,15,16,17-tetradecahydro-1H-cyclopenta[a]phenanthren-17-yl)-2-oxoethyl) carbonate [Example 67] | 5.91
4 | Conjugate of CS and 2-((6αS,6βR,7S,8αS,8βS,11αR,12αS,12βS)-6β-fluoro-7-hydroxy-6α,8α,10,10-tetramethyl-4-oxo-1,2,4,6α,6β,7,8,8α,11α,12,12α,12β-dodecahydro-8βH-naphtho[2′,1′:4,5]indeno[1,2-d][1,3]dioxol-8β-yl)-2-oxoethyl 2,5-diazabicyclo[2.2.1]heptane-2-carboxylate [Example 59] | 0.02
5 | Conjugate of HA and 4-aminobutyl (2-((8S,9S,10R,13S,14S,17R)-17-hydroxy-10,13-dimethyl-3,11-dioxo-2,3,6,7,8,9,10,11,12,13,14,15,16,17-tetradecahydro-1H-cyclopenta[a]phenanthren-17-yl)-2-oxoethyl) carbonate [Example 66] | 11.18
6 | Conjugate of CS (Chondroitin sulfate) and 2-aminopropyl (2-((6αS,6βR,7S,8αS,8βS,11αR,12αS,12βS)-6β-fluoro-7-hydroxy-6α,8α,10,10-tetramethyl-4-oxo-1,2,4,6α,6β,7,8,8α,11α,12,12α,12β-dodecahydro-8βH-naphtho[2′,1′:4,5]indeno[1,2-d][1,3]dioxol-8β-yl)-2-oxoethyl) carbonate [Example 53] | 1.49
7 | Conjugate of CS and 2-((6αS,6βR,7S,8αS,8βS,11αR,12αS,12βS)-6β-fluoro-7-hydroxy-6α,8α,10,10-tetramethyl-4-oxo-1,2,4,6α,6β,7,8,8α,11α,12,12α,12β-dodecahydro-8βH-naphtho[2′,1′:4,5]indeno[1,2-d][1,3]dioxol-8β-yl)-2-oxoethyl 7-azaspiro[3.5]nonane-2-carboxylate [Example 49] | 0.42
8 | Conjugate of HA and 2-((8S,9S,10R,13S,14S,17R)-17-hydroxy-10,13-dimethyl-3,11-dioxo-6,7,8,9,10,11,12,13,14,15,16,17-dodecahydro-3H-cyclopenta[a]phenanthren-17-yl)-2-oxoethyl 5-aminopentanoate [Example 74] | 4.06
9 | Conjugate of HA and 2-((8S,9S,10R,11S,13S,14S,17R)-11,17-dihydroxy-10,13-dimethyl-3-oxo-2,3,6,7,8,9,10,11,12,13,14,15,16,17-tetradecahydro-1H-cyclopenta[a]phenanthren-17-yl)-2-oxoethyl 4-aminobutanoate [Example 38] | 1.71
10 | Conjugate of CS and 2-((8S,9S,10R,13S,14S,17R)-17-hydroxy-10,13-dimethyl-3,11-dioxo-6,7,8,9,10,11,12,13,14,15,16,17-dodecahydro-3H-cyclopenta[a]phenanthren-17-yl)-2-oxoethyl 4-aminobutanoate [Example 35] | 1.44
11 | Conjugate of HA and 4-aminobutyl (2-((8S,9R,10S,11S,13S,14S,16S,17R)-9-fluoro-11,17-dihydroxy-10,13,16-trimethyl-3-oxo-6,7,8,9,10,11,12,13,14,15,16,17-dodecahydro-3H-cyclopenta[a]phenanthren-17-yl)-2-oxoethyl) carbonate [Example 72] | 7.86
12 | Conjugate of HA and 2-((8S,9S,10R,11S,13S,14S,17R)-11,17-dihydroxy-10,13-dimethyl-3-oxo-6,7,8,9,10,11,12,13,14,15,16,17-dodecahydro-3H-cyclopenta[a]phenanthren-17-yl)-2-oxoethyl 4-aminobutanoate [Example 36] | 2.89
13 | Conjugate of CS and 2-((6αS,6βR,7S,8αS,8βS,11αR,12αS,12βS)-6β-fluoro-7-hydroxy-6α,8α,10,10-tetramethyl-4-oxo-1,2,4,6α,6β,7,8,8α,11α,12,12α,12β-dodecahydro-8βH-naphtho[2′,1′:4,5]indeno[1,2-d][1,3]dioxol-8β-yl)-2-oxoethyl 14-amino-3,6,9,12-tetraoxatetradecanoate [Example 51] | 7.21
14 | Conjugate of HA and 2-((6S,8S,9S,10R,11S,13S,14S,17R)-11,17-dihydroxy-6,10,13-trimethyl-3-oxo-6,7,8,9,10,11,12,13,14,15,16,17-dodecahydro-3H-cyclopenta[a]phenanthren-17-yl)-2-oxoethyl 4-aminobutanoate [Example 42] | 2.88
15 | Conjugate of HA and 5-aminopentyl (2-((8S,9S,10R,13S,14S,17R)-17-hydroxy-10,13-dimethyl-3,11-dioxo-2,3,6,7,8,9,10,11,12,13,14,15,16,17-tetradecahydro-1H-cyclopenta[a]phenanthren-17-yl)-2-oxoethyl) carbonate [Example 91] | 11.66
16 | Conjugate of CS and 4-aminobutyl (2-((8S,9R,10S,11S,13S,14S,16R,17R)-9-fluoro-11,17-dihydroxy-10,13,16-trimethyl-3-oxo-6,7,8,9,10,11,12,13,14,15,16,17-dodecahydro-3H-cyclopenta[a]phenanthren-17-yl)-2-oxoethyl) carbonate [Example 71] | 1.55
17 | Conjugate of HA and 2-((6S,8S,9S,10R,11S,13S,14S,17R)-11,17-dihydroxy-6,10,13-trimethyl-3-oxo-6,7,8,9,10,11,12,13,14,15,16,17-dodecahydro-3H-cyclopenta[a]phenanthren-17-yl)-2-oxoethyl 6-aminohexanoate [Example 82] | 2.30
18 | Conjugate of CS and 2-((8S,9R,10S,11S,13S,14S,16S,17R)-9-fluoro-11,17-dihydroxy-10,13,16-trimethyl-3-oxo-6,7,8,9,10,11,12,13,14,15,16,17-dodecahydro-3H-cyclopenta[a]phenanthren-17-yl)-2-oxoethyl 4-aminobutanoate [Example 47] | 1.24
19 | Conjugate of HA and 5-aminopentyl (2-((8S,9S,10R,13S,14S,17R)-17-hydroxy-10,13-dimethyl-3,11-dioxo-6,7,8,9,10,11,12,13,14,15,16,17-dodecahydro-3H-cyclopenta[a]phenanthren-17-yl)-2-oxoethyl) carbonate [Example 89] | 8.12
20 | Conjugate of HA and 2-((2S,6αS,6βR,7S,8αS,8βS,11αR,12αS,12βS)-2,6β-difluoro-7-hydroxy-6α,8α,10,10-tetramethyl-4-oxo-1,2,4,6α,6β,7,8,8α,11α,12,12α,12β-dodecahydro-8βH-naphtho[2′,1′:4,5]indeno[1,2-d][1,3]dioxol-8β-yl)-2-oxoethyl 6-aminohexanoate [Example 23] | 1.01
21 | Conjugate of HA and 2-((8S,9R,10S,11S,13S,14S,16R,17R)-9-fluoro-11,17-dihydroxy-10,13,16-trimethyl-3-oxo-6,7,8,9,10,11,12,13,14,15,16,17-dodecahydro-3H-cyclopenta[a]phenanthren-17-yl)-2-oxoethyl 5-aminopentanoate [Example 79] | 4.42
22 | Conjugate of CS and 2-((6αS,6βR,7S,8αS,8βS,11αR,12αS,12βS)-6β-fluoro-7-hydroxy-6α,8α,10,10-tetramethyl-4-oxo-1,2,4,6α,6β,7,8,8α,11α,12,12α,12β-dodecahydro-8βH-naphtho[2′,1′:4,5]indeno[1,2-d][1,3]dioxol-8β-yl)-2-oxoethyl piperazine-1-carboxylate [Example 57] | 0.23
23 | Conjugate of CS and 4-aminobutyl (2-((8S,9S,10R,11S,13S,14S,17R)-11,17-dihydroxy-10,13-dimethyl-3-oxo-6,7,8,9,10,11,12,13,14,15,16,17-dodecahydro-3H-cyclopenta[a]phenanthren-17-yl)-2-oxoethyl) carbonate [Example 63] | 0.05
24 | Conjugate of HA and 5-aminopentyl (2-((6S,8S,9S,10R,11S,13S,14S,17R)-11,17-dihydroxy-6,10,13-trimethyl-3-oxo-6,7,8,9,10,11,12,13,14,15,16,17-dodecahydro-3H-cyclopenta[a]phenanthren-17-yl)-2-oxoethyl) carbonate [Example 86] | 6.93
25 | Conjugate of CS and 2-((6S,8S,9S,10R,11S,13S,14S,17R)-11,17-dihydroxy-6,10,13-trimethyl-3-oxo-6,7,8,9,10,11,12,13,14,15,16,17-dodecahydro-3H-cyclopenta[a]phenanthren-17-yl)-2-oxoethyl 4-aminobutanoate [Example 43] | 1.07

— US20240398963A1 (priority 2021, published 2024)
